According to the supplement of paper PMC10065799, “High-throughput profiling of sequence recognition by tyrosine kinases and SH2 domains using bacterial peptide display” (eLife, 2023):

Experiments:
[1] = target: EPHB2 (UniProt P29323); assay: phosphorylation enrichment, bacterial display (enrichment ratio); higher = better substrate or ligand; peptides without Tyr show the background
[2] = test system: Fer (mouse); assay: as above
[3] = target: EPHB1 (UniProt P54762); assay: as above
[4] = target: Hck (UniProt P08631); assay: as above
[5] = target: FGFR1 (UniProt P11362); assay: as above
[6] = target: Fyn (UniProt P06241); assay: as above
[7] = target: Jak2 (UniProt O60674); assay: as above
[8] = target: Fes (UniProt P07332); assay: as above
[9] = target: FGFR3 (UniProt P22607); assay: as above
[10] = target: MERTK (UniProt Q12866); assay: as above
[11] = test system: AncSZ; assay: as above
[12] = test system: c-Src; assay: as above
[13] = test system: c-Abl (mouse); assay: as above
[14] = target: SHP2-C SH2; assay: SH2 binding enrichment of the phosphorylated peptide, bacterial display (enrichment ratio); higher = better substrate or ligand; peptides without Tyr show the background
[15] = target: Grb2 SH2 (UniProt P62993); assay: as above
[16] = target: c-Src SH2; assay: as above
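Wherever SH2 binding enrichment of the phosphorylated peptide, bacterial display is given: peptide library displayed on the E. coli surface as eCPX fusions, selected cells deep-sequenced, score is each peptide's frequency after selection divided by its frequency in the input.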
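Wherever phosphorylation enrichment, bacterial display is given: 11-residue human phosphosite peptides and single-mutation variants displayed on the E. coli surface, counted by deep sequencing, each peptide's frequency after selection divided by its frequency in the unselected input library; frequency after pTyr selection over input frequency; kinase dosed for 20-30% of maximal phosphorylation in three min.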

MERTK, sequence (Q12866 whole entry, looked up): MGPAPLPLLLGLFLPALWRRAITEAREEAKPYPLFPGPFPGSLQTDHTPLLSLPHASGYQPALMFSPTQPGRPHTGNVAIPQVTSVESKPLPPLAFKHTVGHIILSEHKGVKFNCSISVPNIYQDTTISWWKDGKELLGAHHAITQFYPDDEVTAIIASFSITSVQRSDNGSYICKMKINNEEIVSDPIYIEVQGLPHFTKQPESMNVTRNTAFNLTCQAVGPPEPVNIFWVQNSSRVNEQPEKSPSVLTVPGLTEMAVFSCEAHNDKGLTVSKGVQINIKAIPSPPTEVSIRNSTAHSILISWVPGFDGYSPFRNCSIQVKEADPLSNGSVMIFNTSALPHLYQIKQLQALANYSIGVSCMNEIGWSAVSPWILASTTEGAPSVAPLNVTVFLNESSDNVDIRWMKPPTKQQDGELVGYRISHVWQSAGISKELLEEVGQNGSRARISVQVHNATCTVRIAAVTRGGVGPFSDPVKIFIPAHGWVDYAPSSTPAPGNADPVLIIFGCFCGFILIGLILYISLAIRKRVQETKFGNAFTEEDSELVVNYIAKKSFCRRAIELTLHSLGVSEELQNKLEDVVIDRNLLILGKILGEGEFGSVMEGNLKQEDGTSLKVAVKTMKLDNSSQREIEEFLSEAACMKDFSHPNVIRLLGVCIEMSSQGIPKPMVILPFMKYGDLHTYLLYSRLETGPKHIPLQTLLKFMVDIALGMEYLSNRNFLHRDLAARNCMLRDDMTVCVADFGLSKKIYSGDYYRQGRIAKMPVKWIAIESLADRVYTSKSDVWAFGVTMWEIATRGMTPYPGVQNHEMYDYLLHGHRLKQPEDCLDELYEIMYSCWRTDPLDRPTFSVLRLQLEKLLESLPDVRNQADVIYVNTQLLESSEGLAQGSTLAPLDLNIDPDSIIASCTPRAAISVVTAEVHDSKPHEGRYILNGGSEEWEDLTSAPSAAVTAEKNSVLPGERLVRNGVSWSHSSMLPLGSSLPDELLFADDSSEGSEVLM
EPHB2, sequence (P29323 whole entry, looked up): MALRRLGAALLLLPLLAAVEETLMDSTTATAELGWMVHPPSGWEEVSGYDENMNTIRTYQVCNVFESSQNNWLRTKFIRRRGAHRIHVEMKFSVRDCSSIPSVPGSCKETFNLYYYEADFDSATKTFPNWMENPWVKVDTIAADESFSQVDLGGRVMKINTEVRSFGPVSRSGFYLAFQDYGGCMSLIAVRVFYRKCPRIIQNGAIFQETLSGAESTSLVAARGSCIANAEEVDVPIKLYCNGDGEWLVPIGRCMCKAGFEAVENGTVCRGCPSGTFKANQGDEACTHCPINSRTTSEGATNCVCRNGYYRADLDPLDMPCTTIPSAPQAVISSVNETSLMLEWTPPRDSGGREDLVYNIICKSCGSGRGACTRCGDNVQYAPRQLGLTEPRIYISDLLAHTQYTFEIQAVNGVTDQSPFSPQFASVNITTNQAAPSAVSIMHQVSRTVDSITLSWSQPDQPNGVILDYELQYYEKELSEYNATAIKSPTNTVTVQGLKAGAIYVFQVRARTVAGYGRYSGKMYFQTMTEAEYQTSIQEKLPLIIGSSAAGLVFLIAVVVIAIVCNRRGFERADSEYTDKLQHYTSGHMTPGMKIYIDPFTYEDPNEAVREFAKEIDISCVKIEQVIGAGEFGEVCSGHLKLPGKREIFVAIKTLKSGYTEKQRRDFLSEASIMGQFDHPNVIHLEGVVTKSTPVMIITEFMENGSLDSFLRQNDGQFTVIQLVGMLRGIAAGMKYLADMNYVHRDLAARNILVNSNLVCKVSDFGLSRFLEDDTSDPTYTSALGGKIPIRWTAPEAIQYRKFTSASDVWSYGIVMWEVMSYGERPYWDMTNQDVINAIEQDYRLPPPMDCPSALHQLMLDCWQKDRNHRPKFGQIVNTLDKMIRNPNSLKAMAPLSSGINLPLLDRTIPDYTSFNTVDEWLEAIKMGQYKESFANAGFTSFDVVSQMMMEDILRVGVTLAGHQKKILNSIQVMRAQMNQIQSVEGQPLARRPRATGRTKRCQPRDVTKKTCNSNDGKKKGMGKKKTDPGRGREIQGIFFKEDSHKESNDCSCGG
Fes, sequence (P07332 whole entry, looked up): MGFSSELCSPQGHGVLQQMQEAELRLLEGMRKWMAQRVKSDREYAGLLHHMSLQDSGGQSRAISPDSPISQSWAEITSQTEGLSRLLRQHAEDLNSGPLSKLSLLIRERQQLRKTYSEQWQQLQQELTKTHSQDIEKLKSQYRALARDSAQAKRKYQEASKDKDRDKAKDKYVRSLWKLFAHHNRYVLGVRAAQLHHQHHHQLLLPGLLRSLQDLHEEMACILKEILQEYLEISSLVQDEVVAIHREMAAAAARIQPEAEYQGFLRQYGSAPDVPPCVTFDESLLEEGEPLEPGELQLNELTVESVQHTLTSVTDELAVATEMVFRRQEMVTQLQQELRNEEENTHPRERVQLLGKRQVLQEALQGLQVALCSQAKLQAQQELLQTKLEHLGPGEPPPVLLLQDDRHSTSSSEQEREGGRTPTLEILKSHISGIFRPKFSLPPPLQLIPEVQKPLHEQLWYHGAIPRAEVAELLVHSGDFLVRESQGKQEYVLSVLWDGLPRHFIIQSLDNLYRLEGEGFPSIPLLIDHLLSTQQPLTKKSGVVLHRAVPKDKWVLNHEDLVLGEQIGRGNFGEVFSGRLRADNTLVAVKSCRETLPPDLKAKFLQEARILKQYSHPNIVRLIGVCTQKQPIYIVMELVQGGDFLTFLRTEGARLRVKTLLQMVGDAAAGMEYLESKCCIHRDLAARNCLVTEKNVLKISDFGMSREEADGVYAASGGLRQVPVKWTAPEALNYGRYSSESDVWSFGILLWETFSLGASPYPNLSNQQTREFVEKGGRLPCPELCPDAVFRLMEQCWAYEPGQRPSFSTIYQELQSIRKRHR
Fyn, sequence (P06241 whole entry, looked up): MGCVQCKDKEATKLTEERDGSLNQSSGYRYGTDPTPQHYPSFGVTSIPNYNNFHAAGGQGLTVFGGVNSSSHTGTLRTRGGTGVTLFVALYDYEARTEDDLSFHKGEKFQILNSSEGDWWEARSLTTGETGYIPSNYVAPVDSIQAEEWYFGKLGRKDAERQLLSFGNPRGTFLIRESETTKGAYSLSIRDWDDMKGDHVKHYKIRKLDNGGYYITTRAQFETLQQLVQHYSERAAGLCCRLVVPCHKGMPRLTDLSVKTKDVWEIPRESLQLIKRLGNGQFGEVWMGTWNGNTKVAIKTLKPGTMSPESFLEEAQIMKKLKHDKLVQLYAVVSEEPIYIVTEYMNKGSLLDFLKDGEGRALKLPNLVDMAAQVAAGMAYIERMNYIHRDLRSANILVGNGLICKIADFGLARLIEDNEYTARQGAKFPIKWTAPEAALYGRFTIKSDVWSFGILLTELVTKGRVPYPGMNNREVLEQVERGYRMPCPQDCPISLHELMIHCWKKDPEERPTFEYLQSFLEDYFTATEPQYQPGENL
FGFR3, sequence (P22607 whole entry, looked up): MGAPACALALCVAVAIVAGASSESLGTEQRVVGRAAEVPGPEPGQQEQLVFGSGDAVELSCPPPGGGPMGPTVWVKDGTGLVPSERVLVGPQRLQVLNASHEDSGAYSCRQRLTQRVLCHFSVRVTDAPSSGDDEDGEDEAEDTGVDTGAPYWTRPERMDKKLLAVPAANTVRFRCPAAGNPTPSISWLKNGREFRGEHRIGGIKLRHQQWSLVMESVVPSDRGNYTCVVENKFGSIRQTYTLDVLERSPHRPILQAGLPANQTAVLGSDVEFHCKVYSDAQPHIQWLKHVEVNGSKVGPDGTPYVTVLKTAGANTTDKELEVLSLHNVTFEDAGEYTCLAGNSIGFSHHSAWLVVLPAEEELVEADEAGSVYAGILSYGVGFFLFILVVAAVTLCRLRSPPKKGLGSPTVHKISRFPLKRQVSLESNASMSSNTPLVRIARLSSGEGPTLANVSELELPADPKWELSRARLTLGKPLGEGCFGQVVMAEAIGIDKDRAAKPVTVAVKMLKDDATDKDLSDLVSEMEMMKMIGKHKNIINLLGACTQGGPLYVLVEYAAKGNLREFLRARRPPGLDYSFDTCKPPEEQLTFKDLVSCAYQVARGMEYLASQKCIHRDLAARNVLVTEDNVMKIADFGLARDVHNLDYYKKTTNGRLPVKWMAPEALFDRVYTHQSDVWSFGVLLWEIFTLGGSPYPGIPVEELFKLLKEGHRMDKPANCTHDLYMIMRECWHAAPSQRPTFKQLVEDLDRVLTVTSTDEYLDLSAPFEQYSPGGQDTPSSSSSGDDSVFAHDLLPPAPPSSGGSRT
Hck, sequence (P08631 whole entry, looked up): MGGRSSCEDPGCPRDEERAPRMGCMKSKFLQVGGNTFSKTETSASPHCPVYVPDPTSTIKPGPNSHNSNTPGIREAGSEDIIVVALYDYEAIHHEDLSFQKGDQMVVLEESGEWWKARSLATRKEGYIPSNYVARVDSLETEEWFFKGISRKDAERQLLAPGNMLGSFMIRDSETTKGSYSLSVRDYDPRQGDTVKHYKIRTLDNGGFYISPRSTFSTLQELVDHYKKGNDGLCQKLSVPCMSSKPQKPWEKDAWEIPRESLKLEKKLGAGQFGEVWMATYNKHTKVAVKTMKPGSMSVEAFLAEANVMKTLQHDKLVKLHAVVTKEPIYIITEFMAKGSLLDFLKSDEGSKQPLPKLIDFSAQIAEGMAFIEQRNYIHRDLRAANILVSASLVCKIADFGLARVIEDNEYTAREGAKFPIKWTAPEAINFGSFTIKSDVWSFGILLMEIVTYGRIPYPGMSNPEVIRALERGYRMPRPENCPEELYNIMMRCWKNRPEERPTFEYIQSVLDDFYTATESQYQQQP

SH2 binding enrichment [14] | SH2 binding enrichment [15] | SH2 binding enrichment [16] | Sequence | phosphorylation enrichment [1] | phosphorylation enrichment [2] | phosphorylation enrichment [3] | phosphorylation enrichment [4] | phosphorylation enrichment [5] | phosphorylation enrichment [6] | phosphorylation enrichment [7] | phosphorylation enrichment [8] | phosphorylation enrichment [9] | phosphorylation enrichment [10] | phosphorylation enrichment [11] | phosphorylation enrichment [12] | phosphorylation enrichment [13]
0.649 | 0.616 | 0.553 | IYGASYVPFAA [RBM47_Y541] | 0.861 | 7.91 | 0.67 | 7.75 | 0.78 | 10 | 2.11 | 0.687 | 0.708 | 6.3 | 0.701 | 6.94 | 9.26
0.58 | 0.78 | 0.55 | ADRARYSAFGG [RBM4_Y361] | 0.303 | 0.424 | 0.371 | 0.381 | 0.35 | 0.41 | 0.482 | 0.523 | 0.394 | 0.4 | 0.5 | 0.397 | 0.546
0.831 | 0.711 | 0.785 | MEKEKYVSFIS [JMJD1C_Y596_YF] | 0.417 | 0.35 | 0.416 | 0.497 | 0.434 | 0.348 | 0.518 | 0.832 | 0.55 | 0.454 | 0.833 | 0.486 | 0.541
1.21 | 0.839 | 3.49 | ALAAPYVLFPG [CEFIP_Y1332_YF] | 0.452 | 0.543 | 0.581 | 0.641 | 3.79 | 0.739 | 1.21 | 0.726 | 2.44 | 1.29 | 0.775 | 4.54 | 0.598
0.867 | 0.984 | 0.484 | PKGIRYGQGAG [CSRP3_Y73_G72R] | 0.375 | 0.349 | 0.502 | 0.587 | 0.339 | 0.411 | 0.521 | 0.504 | 0.453 | 0.9 | 0.532 | 0.585 | 0.927
0.602 | 0.814 | 0.573 | NLGQQYNSPQE [UMPS_Y432] | 0.579 | 0.498 | 0.563 | 0.502 | 0.614 | 0.495 | 0.78 | 0.974 | 0.675 | 0.413 | 0.895 | 0.374 | 0.634
0.767 | 0.783 | 0.678 | TISPYYRQSLF [CRYAA_Y48] | 0.474 | 0.479 | 0.526 | 0.433 | 0.613 | 0.414 | 0.745 | 0.787 | 0.653 | 0.468 | 0.859 | 0.492 | 0.617
0.772 | 0.93 | 21.4 | EADRKYEEVAG [TPM3_Y163_R168G] | 0.578 | 0.464 | 0.655 | 0.523 | 0.6 | 0.508 | 0.998 | 1.07 | 0.685 | 0.48 | 1.12 | 0.452 | 0.613
0.563 | 0.895 | 0.589 | FVGGFYGGCNE [CTSC_Y352_YF] | 0.752 | 0.941 | 0.696 | 1.02 | 0.632 | 0.666 | 1.27 | 1.42 | 0.918 | 0.516 | 1.22 | 0.784 | 0.86
0.693 | 0.965 | 4.4 | ARSHIYTLASC [MEFV_Y741_F743L] | 0.58 | 0.657 | 0.598 | 0.95 | 0.541 | 2.13 | 0.802 | 1.13 | 0.68 | 1.17 | 1.05 | 2.07 | 0.803
0.81 | 0.739 | 1.93 | TGHKGYVAFLE [CARD9_Y76] | 0.466 | 0.403 | 0.392 | 0.494 | 0.414 | 0.358 | 0.635 | 0.666 | 0.507 | 0.396 | 0.674 | 0.394 | 0.617
7.14 | 0.972 | 3.58 | GRRNTCYASIA [ACADM_Y352_Y352C] | 0.365 | 0.33 | 0.336 | 0.477 | 0.333 | 0.442 | 0.48 | 0.644 | 0.432 | 0.407 | 0.557 | 0.495 | 0.5
0.968 | 0.953 | 0.609 | GFCSWYRGWAP [TIMP3_Y195_YF] | 0.597 | 0.593 | 0.763 | 0.497 | 0.514 | 0.472 | 1.2 | 1.27 | 0.813 | 0.498 | 1.27 | 0.773 | 0.912
1.43 | 1.55 | 1.03 | VTRKEYFIFLE [CAMKV_Y95] | 0.554 | 0.528 | 0.696 | 0.43 | 0.786 | 0.481 | 1.01 | 1.06 | 0.838 | 0.401 | 1.11 | 0.695 | 0.792
0.646 | 0.943 | 0.635 | IPGGIYNADLN [CST4_Y35_D36N] | 0.366 | 0.472 | 0.514 | 1.27 | 0.542 | 1.27 | 0.746 | 0.95 | 0.516 | 0.443 | 0.748 | 1.36 | 0.654
1.24 | 1.55 | 1.42 | RKMSSYAFFVQ [HMGB1_Y16_G11R] | 0.352 | 0.899 | 0.436 | 0.466 | 0.644 | 0.822 | 0.755 | 1.58 | 0.737 | 1.19 | 1.01 | 0.542 | 0.667
3.15 | 0.779 | 1.55 | PQGVRYTYTID [DCX_Y103_I104T] | 0.495 | 0.499 | 0.702 | 0.601 | 0.57 | 0.587 | 1.05 | 1.36 | 0.784 | 0.338 | 1.05 | 0.634 | 0.605
1.45 | 1.41 | 1.12 | TKVVHYWKWIK [KLK2_Y249_R250W] | 0.364 | 0.378 | 0.494 | 0.501 | 0.489 | 0.346 | 0.802 | 0.975 | 0.58 | 0.51 | 0.812 | 0.474 | 0.714
0.998 | 0.915 | 0.515 | ANYTEYVATRW [CDKL5_Y171] | 9.4 | 0.601 | 8.12 | 0.886 | 2.97 | 0.945 | 0.737 | 0.96 | 2.27 | 1.05 | 1.04 | 1.11 | 0.948
0.662 | 0.701 | 0.447 | SQSKGYRPKLY [SIPA1L3_Y1376_G1371S] | 0.337 | 0.364 | 0.336 | 0.361 | 0.424 | 0.344 | 0.496 | 0.651 | 0.33 | 0.51 | 0.719 | 0.408 | 0.519
0.727 | 1.1 | 5.06 | RLLRGYDQLAY [HLA-C_Y137_S140L] | 0.67 | 0.758 | 0.719 | 0.637 | 0.65 | 0.735 | 0.649 | 1.02 | 0.976 | 0.581 | 1.29 | 0.45 | 0.477
0.932 | 0.889 | 0.676 | IFGASYVPFAA [RBM47_Y541_YF] | 0.53 | 0.542 | 0.432 | 0.92 | 0.589 | 0.609 | 1.27 | 0.783 | 0.636 | 0.71 | 0.775 | 1 | 0.496
0.825 | 1.01 | 0.66 | MANFVYKAGPS [MAML2_Y515_M514V_YF] | 0.553 | 0.39 | 0.436 | 0.499 | 0.517 | 0.423 | 0.477 | 0.65 | 0.469 | 0.371 | 0.681 | 0.365 | 0.417
2.46 | 1.64 | 1.15 | TRSYKYLLLSM [NF1_Y491] | 0.69 | 0.434 | 0.754 | 0.422 | 0.433 | 0.477 | 0.887 | 0.832 | 0.624 | 0.485 | 0.833 | 0.494 | 0.852
0.362 | 0.907 | 0.566 | RRESPYGGGGG [FUS_Y526_R524S] | 0.546 | 0.436 | 0.46 | 0.596 | 0.402 | 0.451 | 0.74 | 0.611 | 0.414 | 0.501 | 0.636 | 0.519 | 0.569
3.39 | 1.15 | 1.71 | LGRTVYADCLA [ABCA4_Y2063_L2060R] | 1.61 | 1.4 | 1.26 | 0.989 | 0.918 | 0.902 | 1.76 | 2.65 | 1.37 | 0.939 | 0.983 | 0.903 | 1.39
2.22 | 0.919 | 0.646 | WFPANYVKLLN [ITSN1_Y1132_S1137N] | 1.21 | 0.511 | 3.81 | 0.536 | 0.599 | 0.53 | 1.45 | 1.14 | 0.76 | 0.587 | 1.06 | 0.532 | 0.759
0.796 | 0.798 | 1.85 | GYEEAYSVSKK [PAFAH1B1_Y28_F31S] | 0.432 | 0.469 | 0.491 | 0.447 | 0.364 | 0.435 | 0.661 | 1.01 | 0.607 | 0.367 | 0.893 | 0.601 | 0.536
1.44 | 1.43 | 1.36 | KVALLYKPYFY [POLE_Y100_P99L] | 0.483 | 0.474 | 0.605 | 0.514 | 0.483 | 0.457 | 0.977 | 1.11 | 0.693 | 0.473 | 0.987 | 0.737 | 0.866
